In article PMC3407147, “Therapeutic Inhibition of Pro-Inflammatory Signaling and Toxicity to Staphylococcal Enterotoxin B by a Synthetic Dimeric BB-Loop Mimetic of MyD88” (PLoS ONE, 2012):

Target: the molecule itself
Assay: peptide or protein array; MyD88 TIR domain monomer spotted in quadruplicate on nitrocellulose-coated slides; biotinylated MyD88 (25 µg/ml) in 50 mM Hepes, 0.1% Tween, 3% human antibody serum, 2 h at room temperature; detected with streptavidin-Alexa Fluor 647; with or without pre-incubation with EM-163 (100 and 50 µg/ml) or DMSO

B1: recombinant MyD88 TIR domain (amino acids 157-296) (domain or fragment, human, UniProt Q99836 157-296, looked up)
chain: MPERFDAFICYCPSDIQFVQEMIRQLEQTNYRLKLCVSDRDVLPGTCVWSIASELIEKRCRRMVVVVSDDYLQSKECDFQTKFALSLSPGAHQKRLIPIKYKAMKKEFPSILRFITVCDYTNPCTKSWFWTRLAKALSLP
modifications: biotin (EZ Link Biotin BMCC kit) on the copy in solution; the copy spotted on the slide is not biotinylated
notes: also called MyD88 (157-296); TIR domain protein (monomer); not shown: His, N-terminal, cleaved; MBP, N-terminal, cleaved
binding result: binds
